One may read the Kd as the equilibrium constant for the complex coming apart. Low readings indicate a tighter complex, high ones a looser complex.

The target in test [1] is T1, human VLA4-Fc (alpha4-Fc/beta1-Fc heterodimer) (human).
T1 construct: Soluble heterodimer from CHO cells, Protein A purified; also called VLA-Fc
Nature of the test: SPR (BIACORE), VLA4-Fc captured by anti-human IgG, 1 mM MnCl2, 1:1 Langmuir; standard BIACORE assay, first preparation (Table 5A); activated VLA4 (Mn2+). As to the method:
All BIACORE analyses were performed on a BIACORE 2000 system or BIACORE 3000 system (GE Healthcare) at room temperature (RT, 25° C.), HBS-P buffer (10 mM Hepes (pH 7.4), 150 mM NaCl, 0.005% surfactant P20) supplemented with 1 mM MnCl₂ (HBS-P-Mn) was used as the flow buffer for all experiments except where indicated.
The kinetic 2D-VCAM-1 assay measures binding kinetics of a dimeric ligand (e.g., VLA-Fc fusion protein or LPAM-1-Fc fusion protein) coated to sensor chips and monomeric analyte (e.g., 2D-VCAM-1 variant polypeptides) in the mobile phase. Goat anti-human IgG antibody (Jackson ImmunoResearch, Catalog No. 105-005-098) was immobilized on CM-5 sensor chips (GE Healthcare, Catalog No. BR-1000-14) according to the manufacturer's protocol. Antibody was diluted to 30 μg/ml in immobilization buffer (10 mM sodium acetate, pH 5.0 (GE Healthcare, Catalog No. BR-1003-51)). […] Un-reacted sites were quenched with 35 μl of 1 M ethanolamine-HCl pH 8.5 (GE Healthcare, Catalog No. BR-1000-50). This procedure typically yielded 15,000 response units (RU) of coupled antibody. VLA4-Fc or LPAM-1-Fc, prepared as described in Examples 3 and 4, respectively, were bound to antibody-coated sensor chips by injection of 20 μl of ligand solution (20 μg/ml protein in HBS-P-Mn buffer at a flow rate of 10 μl/min). Ligand capture levels were typically 200-300 RU. […]
On the technique in general: SPR reads the build-up and loss of mass on a sensor chip optically.

The target in test [2] is T1, human VLA4-Fc (alpha4-Fc/beta1-Fc …). Kind of test: ELISA, VLA4-Fc coated, 1 mM MnCl2; from EC50 values; ELISA, VLA4-Fc coated on plate, 1 mM MnCl2 (activated VLA4); fold relative to human 2D-VCAM-1. Here is the method:
The relative binding affinities of various 2D-VCAM-1 variants to immobilized VLA4-Fc (α4-β1-Fc) heterodimer, relative to a control protein (e.g., Q38L-2D-VCAM-1 or to human 2D-VCAM-1), were deter using a solid-phase ELISA assay. […] The dilution series was transferred into the ELISA plate which was incubated at room temperature for 2 h and subsequently washed with TBS-T. Bound 2D-VCAM protein was detected by incubation with 0.5 ug/ml of biotinylated anti-human VCAM antibody (R&D Systems, Catalog No. BAF809) in TBS-TMC for 1 h at room temperature followed by a TBS-MT (TBS plus 1 mM MnCl2 and 0.02% TWEEN-20) wash and subsequent incubation with 1:2000 dilution of streptavidin-HRP (BD Biosciences, Catalog No. 554066) in TBS-TMC for 30 min at room temperature. […] Fold-improvement in binding was calculated relative to a control protein (e.g., Q38L-2D-VCAM-1 or human 2D-VCAM-1) assayed on the same plate.
In general terms: ELISA stands for enzyme-linked immunosorbent assay.

T1 sequence (chain, as listed by the source limits assumed, form in doubt, chain 1 of 2): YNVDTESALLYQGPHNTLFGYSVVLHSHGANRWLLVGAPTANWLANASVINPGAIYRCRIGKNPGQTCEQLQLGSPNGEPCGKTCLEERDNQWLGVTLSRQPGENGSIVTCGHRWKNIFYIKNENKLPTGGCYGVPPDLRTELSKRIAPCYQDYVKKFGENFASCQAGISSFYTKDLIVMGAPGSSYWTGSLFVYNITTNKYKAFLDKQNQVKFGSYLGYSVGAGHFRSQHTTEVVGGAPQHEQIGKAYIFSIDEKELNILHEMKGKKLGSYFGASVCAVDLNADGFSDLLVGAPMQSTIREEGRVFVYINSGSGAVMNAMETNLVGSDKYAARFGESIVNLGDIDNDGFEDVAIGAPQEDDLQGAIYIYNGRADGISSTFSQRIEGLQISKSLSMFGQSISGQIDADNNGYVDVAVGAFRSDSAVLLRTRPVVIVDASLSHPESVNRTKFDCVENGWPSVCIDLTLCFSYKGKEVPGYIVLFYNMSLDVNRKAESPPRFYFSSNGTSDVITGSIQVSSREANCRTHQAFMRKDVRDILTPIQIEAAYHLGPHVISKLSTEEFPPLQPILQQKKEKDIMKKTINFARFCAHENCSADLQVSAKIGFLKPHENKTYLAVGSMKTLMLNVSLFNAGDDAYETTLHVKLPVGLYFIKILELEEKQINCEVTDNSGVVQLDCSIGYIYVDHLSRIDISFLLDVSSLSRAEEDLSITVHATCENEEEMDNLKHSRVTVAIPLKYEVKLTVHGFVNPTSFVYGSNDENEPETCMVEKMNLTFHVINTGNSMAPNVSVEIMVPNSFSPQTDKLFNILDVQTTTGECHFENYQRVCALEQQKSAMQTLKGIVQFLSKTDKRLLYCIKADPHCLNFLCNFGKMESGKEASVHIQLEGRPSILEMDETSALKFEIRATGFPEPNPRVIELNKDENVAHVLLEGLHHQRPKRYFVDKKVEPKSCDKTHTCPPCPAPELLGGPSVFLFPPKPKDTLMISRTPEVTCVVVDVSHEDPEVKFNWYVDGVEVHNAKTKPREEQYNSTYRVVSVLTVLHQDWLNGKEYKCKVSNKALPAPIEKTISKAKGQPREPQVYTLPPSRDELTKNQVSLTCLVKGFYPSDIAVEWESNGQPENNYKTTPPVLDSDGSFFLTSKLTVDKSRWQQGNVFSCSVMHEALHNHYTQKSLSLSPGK
T1 sequence (chain, as listed by the source limits assumed, form in doubt, chain 2 of 2): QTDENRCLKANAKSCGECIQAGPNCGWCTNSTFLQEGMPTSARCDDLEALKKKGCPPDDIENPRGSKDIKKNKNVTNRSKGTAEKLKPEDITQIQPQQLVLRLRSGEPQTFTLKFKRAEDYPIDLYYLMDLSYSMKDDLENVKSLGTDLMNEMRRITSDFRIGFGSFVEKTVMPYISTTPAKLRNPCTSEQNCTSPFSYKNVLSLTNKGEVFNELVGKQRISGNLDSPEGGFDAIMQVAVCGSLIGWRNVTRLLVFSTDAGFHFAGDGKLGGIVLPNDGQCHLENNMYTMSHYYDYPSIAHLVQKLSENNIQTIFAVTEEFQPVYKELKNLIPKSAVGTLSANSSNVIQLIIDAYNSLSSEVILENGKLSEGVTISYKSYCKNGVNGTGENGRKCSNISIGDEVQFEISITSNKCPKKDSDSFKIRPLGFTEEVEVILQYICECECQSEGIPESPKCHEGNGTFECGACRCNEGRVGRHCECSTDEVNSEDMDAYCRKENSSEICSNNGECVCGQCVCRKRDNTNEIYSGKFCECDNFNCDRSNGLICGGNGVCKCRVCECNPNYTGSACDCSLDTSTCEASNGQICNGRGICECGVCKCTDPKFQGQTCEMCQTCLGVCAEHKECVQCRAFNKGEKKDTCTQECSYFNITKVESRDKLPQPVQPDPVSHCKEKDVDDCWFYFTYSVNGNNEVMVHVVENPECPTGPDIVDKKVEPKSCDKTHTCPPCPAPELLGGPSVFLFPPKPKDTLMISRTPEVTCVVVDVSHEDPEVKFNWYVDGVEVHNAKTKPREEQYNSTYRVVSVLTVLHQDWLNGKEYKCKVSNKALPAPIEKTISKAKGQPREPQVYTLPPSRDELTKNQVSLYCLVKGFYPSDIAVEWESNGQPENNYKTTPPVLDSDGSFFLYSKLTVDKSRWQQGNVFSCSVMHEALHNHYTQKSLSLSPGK

B1: 2D-VCAM-1 variant Clone 146 (ligand, not shown: small tags and cut ends)
chain: FKIETTPESRYLAQIGDSVSLTCSTTGCESPLFFWRPLLDSPLNGKVTNEGTTSTLTMNPVSFGNEHSYLCTARCESRSLEKGIQVEIYSFPKDPEIHLSGPLEAGKPITVKCSVADVYPFDRLEIDLLKGDHLMKSQEFLEDADRKSLETKSLEVTFTPVIEDIGKVLVCRAKLHIDEMDSVPTVRQAVKELQVYISP
On to B1, for which the Kd in test [1] turned out to be 49.7 pM. Moreover, the “fold-improvement in binding relative to human 2D-VCAM-1” value in test [2] was found to be 298 fold.

(Values after patent publication US20120135912A1 (PERSEID THERAPEUTICS, published 2012).)
